Tests used:
Assay type in all cases: biochemical
[1] = Trans-2-enoyl-CoA reductase (butyryl-CoA dehydrogenase) activity assayed as described by Hoffmeister et al.
Method: Trans-2-enoyl-CoA reductase activity was assayed as described by Hoffmeister et al. (J. Biol. Chem. 280, 4329-4338 (2005)). In one typical assay, the specific activity of the TER CAC0462 protein in the induced culture was determined to be 0.694 μmol mg^−1 min^−1 compared to 0.0128 μmol mg^−1 min^−1 in the uninduced culture.
Trans-2-enoyl-CoA reductase activity was assayed as described by Hoffmeister et al., J. Biol. Chem. 280:4329 (2005). In a typical assay, the specific activity of the EgTER(opt) protein in the induced BL21 (DE3)/pET23+::EgTER(opt) culture was determined to be 1.9 μmol mg^−1 min^−1 compared to 0.547 μmol mg^−1 min^−1 in the uninduced culture.
(§1) For enzyme activity analysis, a single colony of each strain was streaked onto a fresh plate containing SD minimal drop out medium and incubated at 30° C. for 2 days. The cells on this plate were used to inoculate 20 mL of SD drop out medium and in a 125 mL shake flask and grown overnight at 30° C., with shaking at 250 rpm. The optical density (OD600) of the overnight culture was measured, and the culture was diluted to an OD600=0.1 in 250 mL of the same medium in a 1.0 L shake flask, and grown at 30° C. with shaking at 250 rpm to an OD600 of between 0.8 to 1.0. The cells were then harvested by centrifugation at 2000×g for 10 min, and resuspended in 20 mL of 50 mM Tris-HCl buffer, pH 8.5. Enzyme assays were performed as described above.

[2] = Acetoacetyl-CoA thiolase activity in cell free extracts (decrease in absorbance at 303 nm); details: yeast strain BY4741 (pNY6), ERG10 gene, in words
Method: Acetoacetyl-CoA thiolase activity in the cell free extracts was measured as degradation of a Mg^2+-acetoacetyl-CoA complex by monitoring the decrease in absorbance at 303 nm. Standard assay conditions were 100 mM Tris-HCl pH 8.0, 1 mM DTT (dithiothreitol) and 10 mM MgCl2. The cocktail was equilibrated for 5 min at 37° C.; then the cell-free extract was added. The reaction was initiated with the addition of 0.05 mM acetoacetyl-CoA plus 0.2 mM CoA. Protein concentration was measured by either the Bradford method or by the Bicinchoninic Kit (Sigma, catalog no. BCA-1). Bovine serum albumin (Bio-Rad, Hercules, Calif.) was used as the standard in both cases. In one typical assay, the specific activity of the ThlA protein in the induced culture was determined to be 16.0 μmol mg^−1 min^−1 compared to 0.27 μmol mg^−1 min^−1 in the uninduced culture.
For enzyme activity analysis, a single colony of each strain was streaked onto a fresh plate containing SD minimal drop out medium and incubated at 30° C. for 2 days. […] The optical density (OD600) of the overnight culture was measured, and the culture was diluted to an OD600=0.1 in 250 mL of the same medium in a 1.0 L shake flask, and grown at 30° C. with shaking at 250 rpm to an OD600 of between 0.8 to 1.0. […]

[3] = Acylating aldehyde dehydrogenase activity (formation of NADH, absorbance at 340 nm); details: yeast BY4741 transformants containing pNY8
Method: Acylating aldehyde dehydrogenase activity was determined by monitoring the formation of NADH, as measured by the increase in absorbance at 340 nm, as described by Husemann et al. (Appl. Microbiol. Biotechnol. 31:435-444 (1989)). In one typical assay, the specific activity of the Aid protein in the induced culture was determined to be 0.106 μmol mg^−1 min^−1 compared to 0.01 μmol mg^−1 min^−1 in the uninduced culture
as §1

[4] = Crotonase activity assayed as described by Stern
Method: Crotonase activity was assayed as described by Stern (Methods Enzymol. 1, 559-566, (1954)). In one typical assay, the specific activity of the crotonase protein in the induced culture was determined to be 444 μmol mg^−1 min^−1 compared to 47 μmol mg^−1 min^−1 in the uninduced culture.
as §1

B1: EgTER(opt): butyryl-CoA dehydrogenase (TER) from Euglena gracilis, codon optimized gene lacking the normal mitochondrial presequence (protein, UniProt Q5EU90 69-539, looked up)
Trans-2-enoyl-CoA reductase: VPQMAEGFSGEATSAWAAAGPQWAAPLVAAASSALALWWWAARRSVRRPLAALAELPTAVTHLAPPMAMFTTTAKVIQPKIRGFICTTTHPIGCEKRVQEEIAYARAHPPTSPGPKRVLVIGCSTGYGLSTRITAAFGYQAATLGVFLAGPPTKGRPAAAGWYNTVAFEKAALEAGLYARSLNGDAFDSTTKARTVEAIKRDLGTVDLVVYSIAAPKRTDPATGVLHKACLKPIGATYTNRTVNTDKAEVTDVSIEPASPEEIADTVKVMGGEDWELWIQALSEAGVLAEGAKTVAYSYIGPEMTWPVYWSGTIGEAKKDVEKAAKRITQQYGCPAYPVVAKALVTQASSAIPVVPLYICLLYRVMKEKGTHEGCIEQMVRLLTTKLYPENGAPIVDEAGRVRVDDWEMAEDVQQAVKDLWSQVSTANLKDISDFAGYQTEFLRLFGFGIDGVDYDQPVDVEADLPSAAQQ
In the case of B1, the “specific activity (trans-2-enoyl-CoA reductase)” value ([1]; induced BL21 (DE3)/pET23+::EgTER(opt) culture) is reported as 1.9 µmol/mg/min and the butyryl-CoA dehydrogenase activity ([1]; pTrc99a-EgTER(opt) compared with CaTER constructs, in words) is reported as “Higher”.

B2: ERG10: product of the Saccharomyces cerevisiae ERG10 gene, a functional ortholog of the thlA gene (protein, UniProt P41338 2-398, looked up)
Acetyl-CoA acetyltransferase: SQNVYIVSTARTPIGSFQGSLSSKTAVELGAVALKGALAKVPELDASKDFDEIIFGNVLSANLGQAPARQVALAAGLSNHIVASTVNKVCASAMKAIILGAQSIKCGNADVVVAGGCESMTNAPYYMPAARAGAKFGQTVLVDGVERDGLNDAYDGLAMGVHAEKCARDWDITREQQDNFAIESYQKSQKSQKEGKFDNEIVPVTIKGFRGKPDTQVTKDEEPARLHVEKLRSARTVFQKENGTVTAANASPINDGAAAVILVSEKVLKEKNLKPLAIIKGWGEAAHQPADFTWAPSLAVPKALKHAGIEDINSVDYFEFNEAFSVVGLVNTKILKLDPSKVNVYGGAVALGHPLGCSGARVVVTLLSILQQEGGKIGVAAICNGGGGASSIVIEKI
With B2 the thiolase activity [2] was “no thiolase activity”.

B3: Ter: butyl-CoA dehydrogenase (ter) encoded by the codon optimized tery gene, SEQ ID NO:187 (protein)
chain: MLVKAKFVKGFIRDVHPYGCRREVLNQIDYCKKAIGFRGPKKVLIVGASSGFGLATRISVAFGGPEAHTIGVSYETGATDRRIGTAGWYNNIFFKEFAKKKGLVAKNFIEDAFSNETKDKVIKYIKDEFGKIDLFVYSLAAPRRKDYKTGNVYTSRIKTILGDFEGPTIDVERDEITLKKVSSASIEEIEETRKVMGGEDWQEWCEELLYEDCFSDKATTIAYSYIGSPRTYKIYREGTIGIAKKDLEDKAKLINEKLNRVIGGRAFVSVNKALVTKASAYIPTFPLYAAILYKVMKEKNIHENCIMQIERMFSEKIYSNEKIQFDDKGRLRMDDLELRKDVQDEVDRIWSNITPENFKELSDYKGYKKEFMNLNGFDLDGVDYSKDLDIELLRKLEP
modifications: Modified Ter protein
With B3 the Ter activity ([1]; yeast BY4741 transformant of pNY9) was 0.26 U/mg and the Ter activity ([1]; yeast BY4741 transformed with pNY13, SD-His medium) was 0.19 U/mg.

B4: Ald: butyraldehyde dehydrogenase encoded by ald from C. beijerinckii ATCC 35702, SEQ ID NO:12; in yeast from codon optimized aldy, SEQ ID NO:189 (protein, listed as Clostridium beijerinckii)
chain: MNKDTLIPTTKDLKVKTNGENINLKNYKDNSSCFGVFENVENAISSAVHAQKILSLHYTKEQREKIITEIRKAALQNKEVLATMILEETHMGRYEDKILKHELVAKYTPGTEDLTTTAWSGDNGLTVVEMSPYGVIGAITPSTNPTETVICNSIGMIAAGNAVVFNGHPCAKKCVAFAVEMINKAIISCGGPENLVTTIKNPTMESLDAIIKHPSIKLLCGTGGPGMVKTLLNSGKKAIGAGAGNPPVIVDDTADIEKAGRSIIEGCSFDNNLPCIAEKEVFVFENVADDLISNMLKNNAVIINEDQVSKLIDLVLQKNNETQEYFINKKWVGKDAKLFLDEIDVESPSNVKCIICEVNANHPFVMTELMMPILPIVRVKDIDEAIKYAKIAEQNRKHSAYIYSKNIDNLNRFEREIDTTIFVKNAKSFAGVGYEAEGFTTFTIAGSTGEGITSARNFTRQRRCVLAG
In the case of B4, the “Ald specific activity towards butyryl-CoA” value [3] is reported as “approximately 0.07 U/mg”.

B5: crotonase: crotonase encoded by crt from C. acetobutylicum ATCC 824, SEQ ID NO:8 (protein, listed as Clostridium acetobutylicum)
chain: MELNNVILEKEGKVAVVTINRPKALNALNSDTLKEMDYVIGEIENDSEVLAVILTGAGEKSFVAGADISEMKEMNTIEGRKFGILGNKVFRRLELLEKPVIAAVNGFALGGGCEIAMSCDIRIASSNARFGQPEVGLGITPGFGGTQRLSRLVGMGMAKQLIFTAQNIKADEALRIGLVNKVVEPSELMNTAKEIANKIVSNAPVAVKLSKQAINRGMQCDIDTALAFESEAFGECFSTEDQKDAMTAFIEKRKIEGFKNR
Work on B5 yielded a Crt activity ([4]; yeast strain BY4741 (pNY11: pRS426-GPM1-crt-GPM1t)) of 85 U/mg and a Crt enzyme activity ([4]; yeast strain DPD5200 (BY4743/pNY103), standard conditions) of 23.0 U/mg.
